In article PMC8196545 (Cell reports, 2021):

B1: HC antibody RI5281 (IgG1) (antibody, V domains shown)
VH: QVRLAEFGGGVVRPGESLTLSCATSGFSFTSYGMHWVRQTPGKGLEWVAVIWNDGSRRYYSDSVQGRFTIAKDFANKTLSLQMRDLRVGDTAVYFCARAYGPQSEIDSWGQGILVTVSS
VL: SYGLTQPSSVSVSPGQTAIITCFGNILPRKSAYWYRQTAGRAPTLVIFGDNNRPSGIPARFSGFTAGTVATLVIAATQVDDEGDYYCYSADNSGNHRGVFGGGTKLTVL
B2: HC antibody RI808 (IgG1) (antibody, V domains shown)
VH: QIQLRESGPGLVKPSETLTLTCSVSGGSIFPYFYSWIRQPAGKGLEWIGRLFSNSGSVRSNPSMHTRVGFSMDRSRNQVSLTLTSVTAEDTAVYYCVRDIMREYDDINGAGGYYRGVDVWGRGTMVTVSS
VL: NFMLTQPPSVSESPGKTVTISCTRNSGSIASNSVYWYRQRPGSPPTTLIHDNNRRPTGVPDRFSASIDTSSNSASLTISSLKTEDEADYYCQSYDNGNHVIFGGGTNLLVL
B3: HC antibody RI10953 (IgG1) (antibody, V domains shown)
VH: EMRLEESGGALVKPGGSLRLSCVASGFKLSEWSLMWVRQAPGKGLQWVSSISLNQDYISYAGSVRGRFDVFRDRTQTSLLLNMNKLKTEDTGVYFCARVHAWRYFDWVNRRSPVEKVLSIDLWGRGTLVIVSS
VL: SGATQPPSVSVSKGETARITCSGVELSSQYVSWYRQRPGQSPVLVMFHNNSRASRIPERFSASDSGDTATLTIAGAQDVDEAEYYCQTWDSKNYVTFGGGTKLTVL
B4: c10814 (antibody, V domains shown)
V domain 1: EVRLDQSGTEMRKPGTRVRLSCKVSGHTTSDFFVHWVQQAPQRGPQWMGLINVEDENVIYADIFQGRISIVADTSKKTVFLDLTDLTFEETALYFCATHTLQKDTGDYVAAFDSWGQGTLLYVSS
V domain 2: QSVLTQPPSVSAVPGQKVIISCSGRTSNIGTNFVSWYQQFPGAAPKLLIYDNFNRPSGISDRFSASKSDTSATLAITALQAGDEAEYYCGAWDSGLNPAVFVFGSGTRVFVL
B5: c2842 (antibody, V domains shown)
VH: QVQLVQSGAEMKKPGSSVKVSCKASGGSFRSFTVNWVRQAPGQGLEWVGRIIAIFGSVDYAQKFQGRVTISADESTSTFYMDINSLKSEDTAVYYCVRDGLVGGRDFWGQGTQVTVSS
VL: EIVLTQSPGTLSLSPGERATLFCRASQSIKKNYVAWYQQNPGQAPRLLIYGASSRATGTPDRFRGSGSGTDFTLTISRLEPEDFAVYYCQQYGSAQYSFGQGTKLEIK
B6: c2718 (antibody, V domains shown)
VH: HVQLQQWGAGLLKPSETLSLTCAVYGESFSVYDWAWIRQSPGKGLEWIGEINHDGGTNYNPSLKSRVTISIDIHLRRFSLSLISVTAADTAIYYCARHIGQLEAFDYWGQGALVTVSS
VL: QSALTQPASVSGSPGQSITISCTGITSDVGDHSYVSWYQQPPGKAPQLIIYDVVNWPPGVSHRFSGSKSGNTASLTITGLRAEDEADYYCASYRRGSSVVFGGGTKVTVL
B7: c8549 (antibody, V domains shown)
VH: QVTLKESGPTLLRPADTLTLTCNFSGFSLTTDGVALGWMRQSPGKAPEWLAFLFYDDDKQYNPHLKSRLIISKASSTNQLVLAMTNMGPADAGTYFCARLNVLVHDVPPRNYGLDVWGRGITITVSS
VL: DIVLTQSPVSLSVTPGQSASMSCKSSETLLHEDGKSYLYWYLQKPGQSPQLLIYEASKRFSGVSDRFTASGTGTHFTLQIDRVEVDDVGVYYCMENLKALTFGGGTRMEIK
B8: c1821 (antibody, V domains shown)
VH: QVQLIQSGAEVKKPGASVKVSCKVSGYTFPEVSMHWVREAPGRGLEWVGGYDPQSAATVYAQRFQGRVTMTEDTSVDTAYMELTSLTSEDTALYFCARSIMIRYGGVIRSFAFDVWGQGTMVIVSS
VL: SSELTQDPAVSVALGQTVTITCQGDSLRQYYATWYQRKPGQAPVLVLSGKNKRFSGIPDRFSGSTSGNSASLTIIGTQAEDEADYYCSSRGSDAYPHYVFGTGTKVTVL
B9: c8639 (antibody, V domains shown)
VH: LLQLHESGPGLVKPSEALSLTCTVSGASATNGLYWAWIRQPPGKGLEWVASLKKWRGYYNPSLGSRVTISHAPDNQISLRLESVTAADAAVYFCVGFFSSSAFDYWGRGTLVTVSS
VL: AYVLTQPPSVSVAPGKTAKISCEGNNIGQKAVHWYQQKSGQAPVLFISDGTTRTSGIPARFSGSRSGNTATLTISWVEGGDEADYYCQVMSGDTALFGGGTKLTVL
B10: c7809 (antibody, V domains shown)
VH: QEQRIESVRAAVEPGASLIISCPTSGFDFDRYTMHWVRQAPGKGLEWVAVTSSQGEKKYYSEAVKGRFLITRNNFKRTLYLEMSSLKPEDAGVYYCARSQGYCGTYACYGYYYYMDVWVKGPTVIVSS
VL: QSVLTQPPSVSAAPGEKVAISCSGNTTNIEKNYVAWYQHVPETAPKLLIFENHKRPFGIPDRFSGSKSATSATLGISDLQTADEADYYCQTWDTKLHIWVFGGGTKLTVL
B11: c1897 (antibody, V domains shown)
VH: EVQLVQSGAEVKKPGSSVKVSCKGSGGTLNMFALSWVRQAPGQGLEWVGGIIPSFGTTNYAQKFEGRVTITADDSADESTATVHMELSSLRRDDTAVYYCARESSGRADDSLIGYFDRQGEYYFDFWGQGTLVTVSS
VL: DIQMTQSPSTLSASIGDRVTITCRASQSISTLLAWYQQKPGKAPKLLISKASSLQSGVSARFSGSGSGTEFTLTINSLQPDDFATYSCQQYNSHPVTFGQGTKLEIK
B12: c13173 (antibody, V domains shown)
VH: EVYLMESGGGLVQPGGSLRLSCEVSGLNRTDYWMHWIRQPPGKGLEWVSRIYSHGGGTTYADSVRGRFSLSRDSAKSTLFLEMNSLRVEDTAIYYCLFSEGDFWGPGTLVTVSS
VL: QSALTQPASLSGSPGQSITISCTGNSSDIGKSDYVSWYRQDPGKAPKLLIYDVSSRLSGISDRFSGSKSDNTASLTISGLQAEDEADYYCSSYTNWDTKVFGTGTRVTVL
B13: c8567 (antibody, V domains shown)
VH: QQQRVETVKHAVDPGSFLIISCPTSGFTFETYAMHWVRQAPGKGLEWVAATSALGEKKYYSNAVKGRFLITRNNSKRTLYLEMSGLKAEDTAVYYCARSQGYCSDFSCYGYYYYMDVWVKGPTVIVSS
VL: QSVLTQPPSVSAAPGEKVTISCSGNTTNIGNNFVAWYQHLPQNAPKLLIYEDHKRPFGIPDRFSGSKSGTSATLGISGLQTGDEADYYCQTWDAKLLIWIFGGGTKVTVL
B14: c3214 (antibody, V domains shown)
VH: QVQLVQSGAEVKKPGSSVKVSCKASGDNFSGYGINWVRQAPGQGLEWMGRIFPMLPVPSYAQKFQGRVTITADESTNSAYLELTSLRSEDSAVYYCARGTGEGDYFDYWGQGTQVTVSS
VL: DIQMTQSPSSVSASVGDRVTITCRASQGISRYVAWYQQKPGKAPKLLIYAASSLETGVPSRFSGSGSGTDFTLTISSLEPEDFATYYCQQANSFPLTFGGGTKVEIK
B15: c12286 (antibody, V domains shown)
VH: EVHLVESGGGWIHPGMALRLSCAASGFTFEDFAMHWIRQVPGKGLEWVSSITWNGRDTAYADSVKGRFTISRDNAKNSLYLQMNSLRTEDTALYYCVKDSSVSSHYFDSWGQGIMAFVSS
VL: AIQMTQSPSTLSASVGDTVTITCRASQSVSAWLAWYQQKPGKAPKLLIYKASSLQTGVPSRFSGSGSGTEFTLTINSLQPDDFATYSCQQYNFYPWTFGPGTKVEIK

molecular target: T1, HIV-1 NL4-3 Env on infected cells (HIV-1 group M subtype B, NL4-3 (pNL4-3 …, strain)); assay: flow cytometry on cells

Does B1 bind?
Result: binds

molecular target: gp120 JR-CSF (recombinant) (HIV-1, UniProt P20871); assay: ELISA

Does B2 bind?
Result: binds

Does B1 bind?
Result: binds

Does B3 bind?
Result: binds

molecular target: T1, HIV-1 NL4-3 Env on infected cells; assay: not given

Does B4 bind?
Result: binds

Does B5 bind?
Result: binds

Does B6 bind?
Result: binds

Does B7 bind?
Result: binds

Does B8 bind?
Result: binds

Does B9 bind?
Result: binds

Does B10 bind?
Result: binds

Does B11 bind?
Result: binds

Does B12 bind?
Result: binds

Does B13 bind?
Result: binds

Does B14 bind?
Result: binds

Does B15 bind?
Result: binds
